Source: paper PMC9751088, “Structure of the Acidobacteria homodimeric reaction center bound with cytochrome c” (Nature Communications, 2022)

Tests used:
[1] = molecular target: PscA (Chloracidobacterium thermophilum); assay: cryo-EM structure; CabRCS (smaller form, ten subunits), native complex purified from C. thermophilum membranes in Triton X-100; 2.22 Å; 20 mM Tris-HCl pH 7.6, 10 mM ascorbic acid, 0.03% Triton X-100
[2] = molecular target: T1, CabRC core (PscA homodimer) in the CabRC complex (Chloracidobacterium thermophilum, UniProt G2LDR8); assay: cryo-EM structure ([…] Å CabRCS; […] Å CabRCL); HPLC of pigments; assay type: binding; conditions: one transmembrane molecule in each PscA
T1 construct: gene Cabther_A2188; native complex from C. thermophilum membranes, Triton X-100, untagged; PscA homodimer with 11 TMHs each, insertion N440-H644; smaller form CabRCS without and larger form CabRCL with PscB and PscZ; with c-type cytochrome PscX; c-type cytochrome PscY; Reaction center subunit PscU; Reaction center subunit PscV; Reaction center subunit PscW

PscB = molecular target: T2, PscB (Chloracidobacterium thermophilum, UniProt G2LDR7 1-179); assay: cryo-EM structure; CabRCL (larger form with PscB and PscZ), native complex purified from C. thermophilum membranes in Triton X-100; 2.61 Å global, cytoplasmic region ~3.5 to ~5.0 Å; 20 mM Tris-HCl pH 7.6, 10 mM ascorbic acid, 0.03% Triton X-100; conditions: both partners purified
T2 construct: Only in the larger form CabRCL; also called PscB/CabRC
T2 sequence (looked up): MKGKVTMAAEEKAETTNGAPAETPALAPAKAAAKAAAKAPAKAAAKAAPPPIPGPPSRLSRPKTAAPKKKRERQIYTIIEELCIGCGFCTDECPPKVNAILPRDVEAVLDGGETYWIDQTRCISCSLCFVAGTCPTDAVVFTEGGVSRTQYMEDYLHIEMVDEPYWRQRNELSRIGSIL

PscA (natural protein) gave a stoichiometry N [1] of 2.

In the case of `CC(C)=CCC/C(C)=C/C=C/C(C)=C/C=C/C(C)=C/C=C/C=C(C)/C=C/C=C(C)/C=C/C=C(\C)CCC=C(C)C` [lycopene], the “cryo-EM structure (2.22 Å CabRCS; 2.61 Å CabRCL); HPLC of pigments” value [2] is reported as “we identified one transmembrane lycopene molecule in each PscA”.

B1: PscZ (natural protein, Chloracidobacterium thermophilum, UniProt G2LHG2 1-60, looked up)
chain: MARTPEEIVKRYKEANIWLRHWKQQIGLAKDEEQREMFTQYYEERVQEIAALEEPYRAAL
notes: Only in the larger form CabRCL
B1: binds (PscB).
